# Laboratory results from patent US20240199745A1, “ANTI-EGFR ANTIBODY DRUG CONJUGATES” (priority 2016, published 2024).
# Changes are numbered by the printed parent chain.
# B1: AbG-CZ (antibody, human IgG1, kappa, V domains shown)
# VH: EVQLQESGPGLVKPSQTLSLTCTVSGYSISNDFAWNWIRQLPGKGLEWMGYISYKGNTRYQPSLKSRITISRDTSKNQFFLKLNSVTAADTATYYCVTASRGLPYWGQGTLVTVSS
# VL: DIQMTQSPSSMSVSVGDRVTITCHSSQDITYNIGWLQQKPGKSFKGLIYHGANLDDGVPSRFSGSGSGTDYTLTISSLQPEDFATYYCVQYDEFPWTFGGGTKLEIKR
# modifications: synthon CZ on reduced interchain cysteines; average DAR 3.4 per ADC
# B2: AbK-LB (antibody, human IgG1, kappa, V domains shown)
# VH: B1 VH with N31R, L41P, K55N, L103F, Y105W
# VL: B1 VL with I33V, A52S, D56H, E93D
# modifications: synthon LB on reduced interchain cysteines; average DAR 1.8 per ADC
# B3: AbG-YY (antibody, human IgG1, kappa, V domains shown)
# VH: B1 VH
# VL: B1 VL
# modifications: synthon YY on reduced interchain cysteines; average DAR 2.2 per ADC
# B4: AbK-AAA (antibody, human IgG1, kappa, V domains shown)
# VH: B1 VH with N31R, L41P, K55N, L103F, Y105W
# VL: B1 VL with I33V, A52S, D56H, E93D
# modifications: synthon AAA on reduced interchain cysteines; average DAR 1.6 per ADC
# B5: AbK-AAD (antibody, human IgG1, kappa, V domains shown)
# VH: B1 VH with N31R, L41P, K55N, L103F, Y105W
# VL: B1 VL with I33V, A52S, D56H, E93D
# modifications: synthon AAD on reduced interchain cysteines; average DAR 2.8 per ADC
# B6: AbA-ZT (antibody, human IgG1, kappa, V domains shown)
# VH: B1 VH with N31R, L41P, K55N, L103F
# VL: B1 VL with T30N, Y31S, A52T, D92A, E93Q
# modifications: synthon ZT on reduced interchain cysteines; average DAR 2 per ADC
# B7: AbA-WD (antibody, human IgG1, kappa, V domains shown)
# VH: B1 VH with N31R, L41P, K55N, L103F
# VL: B1 VL with T30N, Y31S, A52T, D92A, E93Q
# modifications: synthon WD on reduced interchain cysteines; average DAR 1.8 per ADC
# B8: AbA-TV (antibody, human IgG1, kappa, V domains shown)
# VH: B1 VH with N31R, L41P, K55N, L103F
# VL: B1 VL with T30N, Y31S, A52T, D92A, E93Q
# modifications: synthon TV on reduced interchain cysteines; average DAR 3.7 per ADC
# B9: AbG-LB (antibody, human IgG1, kappa, V domains shown)
# VH: B1 VH
# VL: B1 VL
# modifications: synthon LB on reduced interchain cysteines; average DAR 2.5 per ADC
# B10: AbK-TV (antibody, human IgG1, kappa, V domains shown)
# VH: B1 VH with N31R, L41P, K55N, L103F, Y105W
# VL: B1 VL with I33V, A52S, D56H, E93D
# modifications: synthon TV on reduced interchain cysteines; average DAR 2.4 per ADC
# B11: AbK-YY (antibody, human IgG1, kappa, V domains shown)
# VH: B1 VH with N31R, L41P, K55N, L103F, Y105W
# VL: B1 VL with I33V, A52S, D56H, E93D
# modifications: synthon YY on reduced interchain cysteines; average DAR 1.7 per ADC
# B12: AbG-TX (antibody, human IgG1, kappa, V domains shown)
# VH: B1 VH
# VL: B1 VL
# modifications: synthon TX on reduced interchain cysteines; average DAR 3.3 per ADC
# B13: AbK-CZ (antibody, human IgG1, kappa, V domains shown)
# VH: B1 VH with N31R, L41P, K55N, L103F, Y105W
# VL: B1 VL with I33V, A52S, D56H, E93D
# modifications: synthon CZ on reduced interchain cysteines; average DAR 3.4 per ADC
# B14: AbB-WD (antibody, human IgG1, kappa, V domains shown)
# VH: B1 VH with L41P, L103F, Y105W
# VL: B1 VL with T30N, Y31S, A52T, D92A, E93Q
# modifications: synthon WD on reduced interchain cysteines; average DAR 1.6 per ADC
# B15: AbB-LB (antibody, human IgG1, kappa, V domains shown)
# VH: B1 VH with L41P, L103F, Y105W
# VL: B1 VL with T30N, Y31S, A52T, D92A, E93Q
# modifications: synthon LB on reduced interchain cysteines; average DAR 1.8 per ADC
# B16: AbG-AAA (antibody, human IgG1, kappa, V domains shown)
# VH: B1 VH
# VL: B1 VL
# modifications: synthon AAA on reduced interchain cysteines; average DAR 1.9 per ADC
# B17: AbA-TX (antibody, human IgG1, kappa, V domains shown)
# VH: B1 VH with N31R, L41P, K55N, L103F
# VL: B1 VL with T30N, Y31S, A52T, D92A, E93Q
# modifications: synthon TX on reduced interchain cysteines; average DAR 2.8 per ADC
# B18: AbG-AAD (antibody, human IgG1, kappa, V domains shown)
# VH: B1 VH
# VL: B1 VL
# modifications: synthon AAD on reduced interchain cysteines; average DAR 3.4 per ADC
# B19: AbK-WD (antibody, human IgG1, kappa, V domains shown)
# VH: B1 VH with N31R, L41P, K55N, L103F, Y105W
# VL: B1 VL with I33V, A52S, D56H, E93D
# modifications: synthon WD on reduced interchain cysteines; average DAR 1.7 per ADC
# B20: AbG-TV (antibody, human IgG1, kappa, V domains shown)
# VH: B1 VH
# VL: B1 VL
# modifications: synthon TV on reduced interchain cysteines; average DAR 3.7 per ADC
# B21: AbA-LB (antibody, human IgG1, kappa, V domains shown)
# VH: B1 VH with N31R, L41P, K55N, L103F
# VL: B1 VL with T30N, Y31S, A52T, D92A, E93Q
# modifications: synthon LB on reduced interchain cysteines; average DAR 2.4 per ADC
# B22: AbK-TX (antibody, human IgG1, kappa, V domains shown)
# VH: B1 VH with N31R, L41P, K55N, L103F, Y105W
# VL: B1 VL with I33V, A52S, D56H, E93D
# modifications: synthon TX on reduced interchain cysteines; average DAR 2.2 per ADC
# B23: AbA-ZZ (antibody, human IgG1, kappa, V domains shown)
# VH: B1 VH with N31R, L41P, K55N, L103F
# VL: B1 VL with T30N, Y31S, A52T, D92A, E93Q
# modifications: synthon ZZ on reduced interchain cysteines; average DAR 1.3 per ADC
# B24: AbG-WD (antibody, human IgG1, kappa, V domains shown)
# VH: B1 VH
# VL: B1 VL
# modifications: synthon WD on reduced interchain cysteines; average DAR 3.4 per ADC
# Biological target: human EGFR (huEGFR) over-expressed on mcl-1-/- mouse embryonic fibroblasts (human, UniProt P00533 25-1210)
# Test: cell-based or functional assay
row,Binder,huEGFR+ mcl-1-/- MEF EC50 [nM]
1,B1,3.4
2,B2,17
3,B3,> 500
4,B4,3.4
5,B5,0.4
6,B6,104
7,B7,304
8,B8,3
9,B9,24
10,B10,0.15
11,B11,47
12,B12,5.3
13,B13,0.1
14,B14,23
15,B15,31
16,B16,220
17,B17,16
18,B18,108
19,B19,35
20,B20,2.6
21,B21,27
22,B22,0.79
23,B23,186
24,B24,5.8

# Biological target: EGFR on EGFR positive non-small cell lung cancer cells NCI-H1650 (UniProt P00533 25-1210)
# Test: cell-based or functional assay
Binder,H1650 CTG-3D EC50 [µg/mL],H1650 GFP Flourescence EC50 [µg/mL]
B1,0.07,0.25
B2,1.23,1.33
B3,0.4,1.1
B4,0.11,0.16
B5,0.01,0.06
B6,0.35,1.13
B7,23.6,7.62
B8,0.34,0.69
B9,1.68,1.62
B10,0.05,0.16
B11,0.49,1.09
B12,0.15,0.51
B13,0.08,0.21
B14,2.69,1.01
B15,1.07,2.38
B16,0.12,0.17
B17,> 40,13.9
B18,0.02,0.03
B19,4.36,2.57
B20,0.03,0.04
B21,4.05,2.48
B22,1.07,1.47
B23,1.86,1.18
B24,2.03,0.36
